In US20160075784A1:

Tests used:
[1] = target: CS1-specific CAR (anti-CS1-scFv-CD28-CD3ζ; Pinco-CS1-CAR construct), expressed on transduced primary human T cells; test: flow cytometry, CS1-CAR-transduced healthy donor T cells
[2] = target: CS1-specific CAR (anti-CS1-scFv-CD28-CD3ζ; Pinco-CS1-CAR construct), expressed on transduced primary human T cells; test: flow cytometry, CS1-CAR-transduced T cells of patients with relapsed myeloma, double staining with anti-CD3

Chain of CS1-specific CAR (anti-CS1-scFv-CD28-CD3ζ; Pinco-CS1-CAR construct), expressed on transduced primary human T cells (chain, as listed by the source): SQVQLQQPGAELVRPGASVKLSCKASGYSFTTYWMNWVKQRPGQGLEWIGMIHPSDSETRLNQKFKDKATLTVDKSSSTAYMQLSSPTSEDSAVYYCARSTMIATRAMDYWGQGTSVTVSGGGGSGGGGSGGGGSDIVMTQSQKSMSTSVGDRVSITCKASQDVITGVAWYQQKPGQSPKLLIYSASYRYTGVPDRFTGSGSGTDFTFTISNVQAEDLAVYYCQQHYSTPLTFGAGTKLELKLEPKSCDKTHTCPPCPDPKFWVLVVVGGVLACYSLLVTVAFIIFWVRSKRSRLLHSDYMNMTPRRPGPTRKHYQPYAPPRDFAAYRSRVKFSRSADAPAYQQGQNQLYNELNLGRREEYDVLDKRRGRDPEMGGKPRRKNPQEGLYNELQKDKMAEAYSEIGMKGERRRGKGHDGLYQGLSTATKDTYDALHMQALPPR

Substance: biotin-labeled goat anti-mouse (Fab)2 polyclonal antibody (Jackson ImmunoResearch)
- percent of cells stained [1]: 70.3%
- percent of cells stained [2]: 60.7%
